From US20190276542A1 (QILU PUGET SOUND BIOTHERAPEUTICS, published 2019)
Residue numbers refer to the chain shown, from its start. Read-outs that look alike come from different tables or passages of the source.

B1: altered anti-hCTLA4 10D4 (antibody, human IgG1, kappa, V domains shown)
VH: QVQLVESGGGVVEPGRSLRLSCTASGFTFSSYGMHWVRQAPGKRLEWVAVIWYHPSKKDYADSAKGRFTISRDNSKNTLYLQMNSLRAEDTAVYYCARAGLLGYFDYWGDGTLVTVSS
VL: EIVLTQSPGTLSLSPGERATLSCRASQSVTSYLAWYQQKPGQRPRPLIYGVSSRATGIPDRFSGSGSGTDFTLTISRLEPEDFAVYYCQQYGRYPFTFGDGTKVDIKR
B2: anti-hPD1 antibody #1 (antibody, V domains shown)
VH: QVQLVQSGAEVKKPGASVKVSCKASGYTFTNYWIHWVRQAPGQGLEWMGEIDPYDSYTNYNQKFKGRVTMTVDKSTSTVYMELSSLRSEDTAVYYCARPGFTYGGMDFWGQGTLVTVSS
VL: DIQMTQSPSSLSASVGDRVTITCKSSQSLFNSGNQKNYLAWYQQKPGKVPKLLIYGASTRDSGVPYRFSGSGSGTDFTLTISSLQPEDVATYYCQNDHYYPYTFGGGTKVEIKR
notes: also called Anti-hPD1 #1; Anti-PD1 #1
B3: anti-hPD1 antibody #7 (antibody, human IgG4, V domains shown)
VH: B2 VH with V72I, S77N, F101L
VL: DIVMTQSPDSLAVSLGERATINCRSSQSLFISGNQKNYLAWYQQKPGQPPKLLIYGASTRESGVPDRFSGSGSGTDFTLTISSLQAEDVAVYYCQNNHYYPYTFGGGTKVEIK
notes: also called Anti-hPD1 #7; Anti-PD1 #7
B4: altered anti-hPD1 antibody #1 (antibody, human IgG4 S228P, kappa, V domains shown)
VH: B2 VH with G44D, Q111R
VL: B2 VL with V49D, G106R
B5: anti-hPD1 antibody #10 (antibody, human IgG4, V domains shown)
VH: B2 VH with N31S, I34M, Y54F, V72I, S77N, R87G, F101Y
VL: B3 VL with E61D
notes: also called Anti-hPD1 #10; Anti-PD1 #10
B6: anti-hPD1 antibody #3 (antibody, human IgG4, V domains shown)
VH: B2 VH with G26S, I34M, V72I, K74T, R87T
VL: DIQMTQSPSSLSASVGDRVTITCKSSQSLFNSGNQKNYLAWYQQKPGKVPKLLIYGASTRESGVPARFSGSGSGTDFTLTISSLQAEDVATYYCQNDHYYPYTFGGGTKVEIK
notes: also called Anti-hPD1 #3; Anti-PD1 #3
B7: anti-hPD1 antibody #14 (antibody, human IgG4, V domains shown)
VH: B2 VH with V72G, R87T, F101Y
VL: B6 VL with V49L, E61D, A66S, A86P
notes: also called Anti-hPD1 #14; Anti-PD1 #14
B8: anti-hPD1 antibody #9 (antibody, human IgG4, V domains shown)
VH: B2 VH with N31S, I34M, V72I, R87T
VL: B3 VL with F30L, E61D
notes: also called Anti-hPD1 #9; Anti-PD1 #9
B9: anti-hPD1 antibody #5 (antibody, human IgG4, V domains shown)
VH: B2 VH with I34M, Y54F, V72R
VL: B6 VL with K24R, F30L, V49L, E61D, A66S
notes: also called Anti-hPD1 #5; Anti-PD1 #5
B10: anti-hPD1 antibody #2 (antibody, human IgG4, V domains shown)
VH: B2 VH with N31S, I34M, F101N, F108Y
VL: B6 VL with K24R, E61D, A66Y, A86P
notes: also called Anti-hPD1 #2; Anti-PD1 #2
B11: anti-hPD1 antibody #4 (antibody, human IgG4, V domains shown)
VH: B2 VH with I34M, Y54F, V72R, K74T, R87T, F101Y
VL: B6 VL with F30L, V49P, E61D, A66S, A86P
notes: also called Anti-hPD1 #4; Anti-PD1 #4

Columns and labels:
[1] = target: human CTLA4 expressed on Jurkat T cells (human, UniProt P16410 36-223); test: cell-based or functional assay
[2] = target: T1, soluble, biotinylated PD1 protein containing only the extracellular region (human, UniProt Q15116 25-170, biotinylated in vivo (site not stated)); test: …; inhibition of GST-hPDL1 binding to biotinylated hPD1
T1 construct: extracellular domain; also called biotinylated hPD1
Description: Finally, 10 μL of streptavidin donor beads (which can bind the biotinylated hPD1) were added to bring the final concentration of donor beads to 16 μg/mL, and the plates were incubated in the dark at RT for one hour. […] An antibody that inhibits this interaction or binding will decrease the signal, since the inhibiting antibody prevents physical proximity of the donor and acceptor beads.
Plates were read in an EnVision 2103 Multilabel Reader (PerkinElmer) using illumination at a wavelength of 680 nm and reading emission at a wavelength of about […]. The results were plotted and IC₅₀ values were calculated using GraphPad Prism software.

[3] = target: T2, extracellular domain of a recombinant cynomolgus (rcyno) PD1 (cynomolgus monkey, UniProt B0LAJ3 25-170); test: SPR (Biacore 3000), antibody captured by anti-human IgG, PD1 as analyte
T2 construct: also called recombinant cynomolgus PD1
Description: (§1) Biosensor analysis was conducted at 25° C. in an HBS-EP buffer (10 mM HEPES, 150 mM NaCl, 3 mM EDTA, 0.005% polysorbate 20, 0.1% bovine serum albumin, pH 7.4) using a Biacore 3000 optical biosensor equipped with a CM5 sensor chip according to the manufacturer's general protocol. The auto sampler was maintained at ambient temperature. […] About 8000 resonance units (RU) of this antibody was immobilized on these chips. Flow cell 4 was used to analyze captured anti-hPD1 antibodies (about 100 to 200 RU were captured on flow cell 4), while flow cell 3 was used as the reference flow cell. Both analytes, recombinant human PD1 and recombinant cynomolgus PD1, were prepared in five concentrations for each antibody tested. The analyte concentrations tested ranged from 1.2 to 300 nM. All analyte dilutions were prepared in HPS-EP buffer. Each of the five analyte sample concentrations were run in duplicate and in a mixed order, as a means of assessing the reproducibility of binding and mitigating systematic bias to the order of injection. Multiple blank (running buffer) injections also were run and used to assess and subtract system artifacts. The association phase and dissociation phase for all analyte concentrations were monitored for 300 seconds and 1500 seconds, respectively, at a flow rate of 50 μL/min. Between antibody samples the surface of the flow cell was regenerated with 10 mM glycine, pH 1.5 for 30 seconds at a flow rate of 50 μL/min.
(§2) The data was aligned, double referenced, and fit using SCRUBBER 2™ software (BioLogic Software, Pty, Australia), which is a Surface Plasmon Resonance (SPR) data processing and non-linear least squares regression fitting program.

[4] = target: T3, recombinant human (rhu) PD1 (extracellular domain only) (human, UniProt Q15116 25-170); test: as above
T3 construct: extracellular domain; also called recombinant human PD1
Description: as §1, §2

[5] = target: T4, human PD1 expressed on a cell surface (human, UniProt Q15116 25-288); test: cell-based or functional assay
[6] = target: T4, human PD1 expressed on a cell surface; test: cell-based or functional assay; remark: listed apart in the source
[7] = target: T4, human PD1 expressed on a cell surface; test: flow cytometry on OKT3-activated human T cells, CD4- cells
Description: (§3) The following experiment tested whether the selected anti-hPD1 antibodies can bind to native PD1 expressed on the surface of activated T cells. Human PBMCs were pre-activated with OKT3 (an anti-CD3 antibody) at a concentration of 1 μg/ml. After three days, the PBMCs, which were mostly activated T cells at this time, were distributed into a 96 well microtiter plate using 0.1×10⁶ cells/well. […] The antibody bound to CD4⁺ T cells and CD4⁻ T cells (which were predominately CD8⁺ T cells) was detected using anti-hlgG-FITC and an anti-CD4 antibody labeled with allophycocyanin (anti-CD4-APC).
(§4) The samples were analyzed by flow cytometry (FACScalibur, BD), and binding was reported as an MFI. EC₅₀'s for binding were calculated using GraphPad Prism software.

[8] = target: T4, human PD1 expressed on a cell surface; test: cell-based or functional assay; remark: listed apart in the source
[9] = target: T4, human PD1 expressed on a cell surface; test: flow cytometry on OKT3-activated human T cells, CD4+ cells
Description: as §3, §4

[10] = target: T4, human PD1 expressed on a cell surface; test: cell-based or functional assay; remark: listed apart in the source

T4 sequence (Q15116 25-288): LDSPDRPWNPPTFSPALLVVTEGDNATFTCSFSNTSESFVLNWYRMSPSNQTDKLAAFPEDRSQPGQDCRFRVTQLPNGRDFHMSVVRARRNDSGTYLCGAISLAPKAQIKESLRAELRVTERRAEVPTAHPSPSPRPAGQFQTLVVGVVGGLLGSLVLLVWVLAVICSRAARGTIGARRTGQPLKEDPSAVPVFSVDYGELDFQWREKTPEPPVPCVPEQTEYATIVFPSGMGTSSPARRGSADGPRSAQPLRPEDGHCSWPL
T3 sequence (Q15116 25-170): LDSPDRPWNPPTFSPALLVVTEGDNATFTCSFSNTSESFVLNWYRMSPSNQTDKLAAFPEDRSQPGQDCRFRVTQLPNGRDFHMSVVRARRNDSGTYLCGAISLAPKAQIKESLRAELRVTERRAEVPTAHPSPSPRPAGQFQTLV
T1 sequence (Q15116 25-170): as above
T2 sequence (B0LAJ3 entry or part of it limits assumed): as the sequence (Q15116 25-170) above, with D2E, P10A, V19L, T35A, Q75R, T144A counted along it
Sequence of human CTLA4 expressed on Jurkat T cells (P16410 36-223): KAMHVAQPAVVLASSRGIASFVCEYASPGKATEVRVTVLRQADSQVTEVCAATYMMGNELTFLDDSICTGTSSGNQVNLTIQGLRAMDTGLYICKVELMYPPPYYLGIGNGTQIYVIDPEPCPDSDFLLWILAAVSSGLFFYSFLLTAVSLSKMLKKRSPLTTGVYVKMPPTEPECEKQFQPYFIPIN

| Binder | IC50, luciferase reporter assay (Jurkat cells with CTLA4 plus Raji cells with hCD80 and hCD86) [1] [nM] | IC50 [2] [nM] | Kd [3] [nM] | koff [3] [s⁻¹] | kon [3] [M⁻¹ s⁻¹] | Kd [4] [nM] | koff [4] [s⁻¹] | kon [4] [M⁻¹ s⁻¹] | EC50 for CD4+ T cell proliferation (pM), mixed lymphocyte reaction [5] [pM] | EC50 for CD8+ T cell proliferation (pM), mixed lymphocyte reaction [5] [pM] | EC50 for IFN gamma production (pM), mixed lymphocyte reaction [5] [pM] | IC50, luciferase reporter assay (Jurkat cells with hPD1 plus CHO cells with hPDL1) [6] [nM] | EC50 [7] [nM] | IC50, luciferase (RLU), PD1 dual cell reporter assay (Jurkat cells with hPD1 plus CHO-K1 cells with hPDL1) [8] [nM] | EC50 [9] [nM] | IC50, luciferase reporter assay (Jurkat cells with hPD1 plus CHO cells with hPDL1) [10] [nM] | IC50, luciferase reporter assay (Jurkat cells with hPD1 plus CHO cells with hPDL1); tested as the mixture Altered anti-CTLA4 11F4 and altered anti-PD1 #1 made in one cell line [6] [nM] | IC50, luciferase reporter assay (Jurkat cells with hPD1 plus CHO cells with hPDL1); tested as the mixture Altered anti-CTLA4 10D4 and altered anti-PD1 #1 made in one cell line [10] [nM] |
| --- | --- | --- | --- | --- | --- | --- | --- | --- | --- | --- | --- | --- | --- | --- | --- | --- | --- | --- |
| B1 | 3.75 |  |  |  |  |  |  |  |  |  |  |  |  |  |  |  |  |  |
| B2 |  | 0.197 | 5.06 | 0.000597 | 118000 | 2.18 | 0.000133 | 60900 | 135 | 323 | 890 | 2.5 | 1.37 | 1.18 | 0.918 | 2.49 |  |  |
| B3 |  | 0.307 | 0.4 | 5.79e-05 | 145000 | 0.297 | 3.54e-05 | 119000 | 165 | 1520 | 1460 |  | 0.569 | 2.39 | 0.439 |  |  |  |
| B4 |  |  |  |  |  |  |  |  |  |  |  | 2.67 |  |  |  | 2.65 | 3.34 | 3.8 |
| B5 |  | 0.279 |  |  |  | 0.917 | 7.15e-05 | 78000 | 234 | 839 | 2210 |  | 1.6 | 2.69 | 1.07 |  |  |  |
| B6 |  | 0.305 |  |  |  | 5.16 | 0.000348 | 67400 | 365 | 3670 | 2220 |  | 0.69 | 2.37 | 0.536 |  |  |  |
| B7 |  |  |  |  |  |  |  |  |  |  |  |  | 0.449 | 2.69 | 0.39 |  |  |  |
| B8 |  |  |  |  |  |  |  |  |  |  |  |  | 1.48 | 3.13 | 1.01 |  |  |  |
| B9 |  |  |  |  |  |  |  |  |  |  |  |  | 1.12 | 3 | 0.974 |  |  |  |
| B10 |  |  |  |  |  |  |  |  |  |  |  |  | 0.416 | 2.45 | 0.398 |  |  |  |
| B11 |  | 0.314 |  |  |  | 4.62 | 0.000279 | 60400 | 391 | 534 | 1540 |  | 0.885 | 2.03 | 0.672 |  |  |  |
